Test [1] addresses human C1q protein (Sigma-Aldrich #C1740) (human) (UniProt P02745). Description: HTRF sandwich, biotin-anti-human Fab 1/SA-d2, Eu-anti-C1q, buffer 2, with 150 nM human TNF-α.
For test [2] the target is unchanged. Description: HTRF sandwich, biotin-Protein L/SA-d2, Eu-anti-C1q.
For test [3] the target is unchanged. Description: HTRF sandwich, biotin-anti-human Fab 2/SA-d2, Eu-anti-C1q.
Test [4] shares this target. Description: HTRF sandwich, biotin-anti-human Fab 1/SA-d2, Eu-anti-C1q, buffer 2.
Test [5] concerns the target Human myeloma IgG1 purified from human plasma (Sigma-Aldrich #I5154). As to the kind of experiment: HTRF saturation binding, anti-Fab-d2 on Eu cryptate-IgG.
Test [6] deals with Human myeloma IgG4 purified from human plasma (Sigma-Aldrich #I4764). The description is as above.
The target of test [7] is Human myeloma IgG1 purified from human plasma (Sigma-Aldrich #I5154). Description: HTRF saturation binding, biotin-anti-Fab/SA-d2 on Eu cryptate-IgG.
The target in test [8] is Human myeloma IgG2 purified from human plasma (Sigma-Aldrich #I5404). Described as above.
Test [9] concerns the target Human myeloma IgG4 purified from human plasma (Sigma-Aldrich #I4764). Described as above.
The target in test [10] is human C1q protein (Sigma-Aldrich #C1740) (human) (UniProt P02745). As to the kind of experiment: HTRF sandwich, biotin-anti-human Fab 1/SA-d2, Eu-anti-C1q, buffer 1.
Test [11] has the same target. Description: HTRF sandwich, 30 nM biotin-anti-human Fab 1/SA-d2, Eu-anti-C1q, buffer 2.
Test [12] has the same target. Description: HTRF sandwich, 50 nM biotin-anti-human Fab 1/SA-d2, Eu-anti-C1q, buffer 2.
Test [13] shares this target. Description: HTRF sandwich, biotin-anti-human Fab 1/SA-d2, Tb cryptate-C1q.
The target is the same in test [14]. Description: AlphaLISA sandwich, biotin-anti-human Fab 1/streptavidin donor beads, anti-C1q acceptor beads.
Test [15] shares this target. Description: HTRF sandwich, 40 nM biotin-anti-human Fab 1/SA-d2, Eu-anti-C1q, buffer 2.
For test [16] the target is unchanged. As to the kind of experiment: HTRF sandwich, biotin-anti-human Fab 1/SA-d2, Eu-anti-C1q, 135 mM NaCl.
The target is the same in test [17]. As to the kind of experiment: HTRF sandwich, biotin-anti-human Fab 1/SA-d2, Eu-anti-C1q, 155 mM NaCl.
Test [18] has the same target. As to the kind of experiment: HTRF sandwich, anti-human Fab 2-d2 without streptavidin, Eu-anti-C1q.

Adalimumab (+150 nM TNF-α), sequence (P01375 77-233): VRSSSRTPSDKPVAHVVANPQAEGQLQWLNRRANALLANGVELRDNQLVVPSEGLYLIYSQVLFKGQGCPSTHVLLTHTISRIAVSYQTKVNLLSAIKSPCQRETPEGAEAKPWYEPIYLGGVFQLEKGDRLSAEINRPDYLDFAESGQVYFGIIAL

In [1], “Adalimumab (+150 nM TNF-α) (from UniProt P01375 77-233)” gave a half-maximal effective concentration (EC50) of 0.0046 µM and a S/B of 6.9.

For Adalimumab (antibody), the concentration for a half-maximal effect (EC50) in [2] was found to be 0.0698 µM; in test [3], 0.008 µM; in test [4], 0.0072 µM.

Turning to “Anti-human Fab 1: anti-human IgG Fab, mouse IgG2b, monoclonal antibody, clone 4A11 (ThermoFisher Scientific #SA1-19255)”, the Kd turned out to be 0.00016 µM in test [5]; 0.00044 µM in test [6]; 0.0002 µM in [7]; 0.00037 µM in test [8]; 0.00033 µM in test [9].

As to “Anti-human Fab 2: anti-human IgG Fab, mouse IgG2b, monoclonal antibody, clone 2A11 (GeneTex #GTX27497)”, the Kd in test [5] turned out to be 0.0002 µM; in [6], 0.00045 µM; in test [7], 0.00026 µM; in test [8], 0.00047 µM; in [9], 0.0004 µM.

In the case of Atezolizumab (antibody), the EC50 in test [10] stood at 0.0132 µM; in test [11] it was 0.0072 µM; in [12], 0.0109 µM.

On to Cetuximab (antibody), for which the EC50 in test [10] turned out to be 0.0169 µM.

Substance “Cetuximab IgG2 isotype (InvivoGen #hegfr-mab2) (from UniProt P01859 1-326) (antibody)” returned an EC50 in test [10] of 0.048 µM. Compared with the last substance, the EC50 is about 2.8-fold higher.

With “Human IgG1 Isotype Control Recombinant Antibody (BioLegend #403502)”, the EC50 in [13] came to 0.0137 µM; in test [10], 0.0173 µM; in [14], 0.0237 µM. Moreover, the S/B in test [14] worked out at 752.

As to “Human IgG2 Isotype Control Recombinant Antibody (BioLegend #403602)”, the half-maximal effective concentration (EC50) stood at 0.0736 µM in [13]; 0.034 µM in test [10]; 0.0192 µM in test [11]; 0.0257 µM in test [15]; 0.0306 µM in test [12].

For Ipilimumab (antibody), in [10], the EC50 was 0.0132 µM. This lies in the double-digit nanomolar range.

In test [10], “Ipilimumab IgG2 isotype (InvivoGen #hctla4-mab2) (from UniProt P01859 1-326) (antibody)” gave a half-maximal effective concentration (EC50) of 0.0533 µM.

Turning to “Non-fucosylated Rituximab (InvivoGen #hcd20-mab13) (from UniProt P01857 1-330) (antibody)”, in test [10], the EC50 stood at 0.0162 µM.

Consider “Non-glycosylated Cetuximab (InvivoGen #hegfr-mab12) (antibody)”, for which, in [10], the EC50 was 0.0102 µM and the S/B is 1.4.

As to “Non-glycosylated Rituximab (InvivoGen #hcd20-mab12) (antibody)”, in [10], the EC50 was 0.025 µM.

Turning to Obinutuzumab (antibody), the figures for the EC50 in test [10], in test [16] and in test [17] were 0.0186 µM, 0.0186 µM and 0.0197 µM, respectively. In test [17], this substance gave a S/B of 1.6.

Turning to Rituximab (antibody), the EC50 in test [3] turned out to be 0.0117 µM; in test [13], 0.0144 µM; in test [10] it was 0.0155 µM; in [18], 0.024 µM; in [16], 0.0155 µM; in test [17], 0.0289 µM. Further, in test [14], the EC50 was 0.0268 µM.

As for “Rituximab IgG2 isotype (InvivoGen #hcd20-mab2) (from UniProt P01859 1-326) (antibody)”, the EC50 came to 0.0387 µM in test [10], 0.0383 µM in test [16] and 0.0376 µM in test [17].

These data come from patent US20240361334A1.
